Article PMC12329532

Biological target: N-terminally His6-tagged human IDO1 (indoleamine 2,3-dioxygenase 1), purified apo-IDO1 (human) (UniProt P14902)
Sequence (P14902 whole entry): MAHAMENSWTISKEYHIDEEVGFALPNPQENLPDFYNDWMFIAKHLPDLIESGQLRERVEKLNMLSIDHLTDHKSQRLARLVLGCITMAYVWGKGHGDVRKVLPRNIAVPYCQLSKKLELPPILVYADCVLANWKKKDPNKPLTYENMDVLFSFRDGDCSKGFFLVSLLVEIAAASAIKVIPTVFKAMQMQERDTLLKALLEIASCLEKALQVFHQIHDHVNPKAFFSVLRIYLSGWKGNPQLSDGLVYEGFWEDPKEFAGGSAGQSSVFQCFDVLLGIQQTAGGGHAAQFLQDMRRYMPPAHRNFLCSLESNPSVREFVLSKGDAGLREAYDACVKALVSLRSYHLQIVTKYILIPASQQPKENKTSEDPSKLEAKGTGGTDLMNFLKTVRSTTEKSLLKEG

With “human recombinant TC-GAPDH (GAPDH with a tetra-Cys insertion sequence near its heme binding site), wild type, purified (from UniProt P04406 1-335) (enzyme)” the IDO1 catalytic activity after the heme transfer reaction with the TC-GAPDH-heme complex was 2 fold and the decrease in heme content of TC-GAPDH (UV-vis) after 30 min at 37 °C with apo-IDO1 and separation by gel filtration was 50%.
